The text below walks through data of patent publication US20030054360.

What all share (experiment): filter
Series [1] has as its target T1, Interleukin-4 (UniProt P05112).
T1 sequence: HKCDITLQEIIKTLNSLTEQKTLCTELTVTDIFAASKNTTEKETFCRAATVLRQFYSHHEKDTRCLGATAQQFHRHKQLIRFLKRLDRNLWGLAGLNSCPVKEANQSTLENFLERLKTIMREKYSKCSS
The conditions noted are these: 5-BrdU replaces T, apparent photocrosslink KD.

Series [2] has as its target Angiogenin (UniProt P03950). The note with it: 5-BrdU replaces T, apparent photocrosslink KD.
The target in series [3] is beta-Nerve Growth Factor (beta-NGF) (UniProt P01138). The conditions noted are these: 5-BrdU replaces T, apparent photocrosslink KD.
beta-Nerve Growth Factor (beta-NGF), sequence (P01138 122-241): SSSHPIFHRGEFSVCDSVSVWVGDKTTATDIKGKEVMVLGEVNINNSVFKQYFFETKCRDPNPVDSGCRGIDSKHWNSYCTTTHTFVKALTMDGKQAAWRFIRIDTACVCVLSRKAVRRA
Series [4] concerns the target platelet-derived growth factor (PDGF) (Homo sapiens) (UniProt P01127). The conditions noted are these: 5-BrdU replaces T, apparent photocrosslink KD.
Series [5] addresses Transforming Growth Factor beta1 (TGF-beta1) (UniProt P01137). The note with it: 5-BrdU replaces T; apparent photocrosslink KD; plateau 80%; rate 0.58.
The target in series [6] is T2, P-Selectin (Homo sapiens) (UniProt P16109).
T2 sequence: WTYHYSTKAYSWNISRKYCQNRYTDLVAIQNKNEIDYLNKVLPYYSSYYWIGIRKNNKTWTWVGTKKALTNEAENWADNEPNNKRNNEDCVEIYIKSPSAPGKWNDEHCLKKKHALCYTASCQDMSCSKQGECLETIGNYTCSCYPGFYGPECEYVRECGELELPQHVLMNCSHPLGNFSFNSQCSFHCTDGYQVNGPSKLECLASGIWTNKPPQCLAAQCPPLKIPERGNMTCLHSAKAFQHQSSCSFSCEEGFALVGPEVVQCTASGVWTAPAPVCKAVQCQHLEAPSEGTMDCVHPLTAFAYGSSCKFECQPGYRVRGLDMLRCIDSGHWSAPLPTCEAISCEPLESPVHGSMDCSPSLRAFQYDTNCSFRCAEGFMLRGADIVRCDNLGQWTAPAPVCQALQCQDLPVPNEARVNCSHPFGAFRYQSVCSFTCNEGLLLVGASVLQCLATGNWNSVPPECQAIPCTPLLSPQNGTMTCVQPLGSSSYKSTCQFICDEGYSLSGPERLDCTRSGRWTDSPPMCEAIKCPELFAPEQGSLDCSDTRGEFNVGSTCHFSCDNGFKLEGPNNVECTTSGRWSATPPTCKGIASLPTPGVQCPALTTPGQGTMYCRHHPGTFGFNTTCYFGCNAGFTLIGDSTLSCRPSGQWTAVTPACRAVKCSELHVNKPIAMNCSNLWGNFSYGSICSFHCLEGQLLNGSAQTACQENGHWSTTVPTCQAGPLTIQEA
The note with it: 5-BrdU replaces T, apparent photocrosslink KD.

platelet-derived growth factor (PDGF) (Homo sapiens), sequence (P01127 82-190): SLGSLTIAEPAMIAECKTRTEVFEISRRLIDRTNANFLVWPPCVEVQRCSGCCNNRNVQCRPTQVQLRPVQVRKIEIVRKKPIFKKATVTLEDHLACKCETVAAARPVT
Angiogenin, sequence (P03950 25-147): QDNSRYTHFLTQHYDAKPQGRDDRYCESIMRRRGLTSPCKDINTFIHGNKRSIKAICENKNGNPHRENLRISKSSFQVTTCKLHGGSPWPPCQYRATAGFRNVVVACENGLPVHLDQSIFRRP
Transforming Growth Factor beta1 (TGF-beta1), sequence (P01137 279-390): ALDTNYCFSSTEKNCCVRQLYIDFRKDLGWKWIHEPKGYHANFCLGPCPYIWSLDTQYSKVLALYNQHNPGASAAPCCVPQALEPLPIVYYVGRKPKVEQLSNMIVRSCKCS

With “ATATATATGGGAGGACGATGCGGGCCGAAGTCTAAACCTGCTCGTGACTTTCTTTCGATGTTGCAGACGACGAGCGGGAAAAAAAA [IL-4 pool 012 clone 8]”, in series [1] (plateau 40%, rate 1.8), the Kd stood at 39 nM. With “ATATATATGGGAGGACGATGCGGCACCAAAAGGTGGTCTTAGCCTAATTATGGACGTGTCCACCAGACGACGAGCGGGAAAAAAAA [Angiogenin pool 011 clone 27]”, the Kd in series [2] (plateau 37%, rate 0.62) worked out at 0.3 nM.

Turning to “ATATATATGGGAGGACGATGCGGGCACACTTAAATCCACTTCACCTTACAATTCCTTTATCTGCAGACGACGAGCGGGAAAAAAAA [beta-NGF pool 031 clone 17]”, the Kd in series [3] (plateau 66%, rate 1.2, Table 7 sequence differs slightly from listing) was 0.21 nM.

Turning to “ATATATATGGGAGGACGATGCGGGCCCCAAACACTTGTTCCTATCTTTCAACCCCCCTTGATCCAGACGACGAGCGGGAAAAAAAA [beta-NGF pool 031 clone 78]”, the Kd in series [3] (plateau 94%, rate 0.38) worked out at 31 nM. Regarding “ATATATATGGGAGGACGATGCGGGCACTAACTTTACCTCCACCTCTAACCACCCTCCTTTCTGCAGACGACGAGCGGGAAAAAAAA [beta-NGF pool 031 clone 65]”, the Kd in series [3] (plateau 47%, rate 0.94) is 0.2 nM. With “ATATATATGGGAGGACGATGCGGGCCAACCCCTAGTGAACAACAACACTCCCACAGACGACGAGCGGGAAAAAAAA [PDGF pool 4 clone 87]”, the Kd in series [4] (plateau 36%, rate 0.29) was found to be 2 nM. As for “ATATATATGGGAGGACGATGCGGGCAAAGTCTTGGTCCACCAAATATGTGATGTCACCACCAGCAGACGACGAGCGGGAAAAAAAA [Angiogenin pool 011 clone 59]”, the Kd in series [2] (plateau 26%, rate 0.52) was found to be 0.22 nM. On to “ATATATATGGGAGGACGATGCGGGACCATCCAATACCTTCCGTAACACTTTCCTTCTTCCTTCCAGACGACGAGCGGGAAAAAAAA [TGF-beta1 pool 015 clone 81]”, for which the Kd in series [5] came to 7.2 nM. With “ATATATATGGGAGGACGATGCGGGCCACGTGTATTATCCTCAGCTTATAGCCATGGCATGGACCAGACGACGAGCGGGAAAAAAAA [Angiogenin pool 011 clone 58]”, the Kd in series [2] (plateau 16%, rate 1.58) was found to be 2.2 nM. Regarding “ATATATATGGGAGGACGATGCGGGCTCAATAACCTGAATCTACCTTTCCCTAGCAAAGGTCTGCAGACGACGAGCGGGAAAAAAAA [P-selectin pool 014 clone 24]”, in series [6] (plateau 30%, rate 1.86), the Kd is 2.1 nM. For the sequence “ATATATATGGGAGGACGATGCGGGCCAAATGGACTTTTCGCCACGAACTTACGACGGTGTTGCCAGACGACGAGCGGGAAAAAAAA [Angiogenin pool 011 clone 16]”, the Kd in series [2] (plateau 28%, rate 2.6) is 0.3 nM. In the case of “ATATATATGGGAGGACGATGCGGGCCAAGGTTCCCTTCTGCCTCATTGTTGTGGGAACCCATCCAGACGACGAGCGGGAAAAAAAA [IL-4 pool 012 clone 41]”, in series [1] (plateau 58%, rate 0.54, Table 7 sequence differs slightly from listing), the Kd came out at 61 nM. For the sequence “ATATATATGGGAGGACGATGCGGGCGAAGGCACACCGAGTTCATAGTATCCCACAGACGACGAGCGGGAAAAAAAA [PDGF pool 4 clone 64]”, in series [4] (plateau 53%, rate 0.2), the Kd was determined as 4 nM.

As for “ATATATATGGGAGGACGATGCGGCCATGAACCCATCCTCTGGTTCATAATCGACGTGTTCGTGCAGACGACGAGCGGGAAAAAAAA [P-selectin pool 014 clone 17]”, the Kd in series [6] (plateau 59%, rate 1.36) is 18 nM.

For “ATATATATGGGAGGACGATGCGGCAGCACCGAGGTACCCAACAGGGATCCGCCCAGACGACGAGCGGGAAAAAAAA [PDGF pool 008 clone 26]”, the Kd in series [4] (plateau 67%, rate 0.43) turned out to be 1.8 nM. Take “ATATATATGGGAGGACGATGCGGCACGAGGGAATCACCTCGAACTTGTCCTGGATTACTGCCCAGACGACGAGCGGGAAAAAAAA [P-selectin pool 014 clone 21]”: in series [6] (plateau 31%, rate 0.76), the Kd was 9.1 nM. Consider “ATATATATGGGAGGACGATGCGGGCGGAAGAGGCAGGGTACCACGGCAGAGGTCAGACGACGAGCGGGAAAAAAAA [PDGF pool 4 clone 24]”, for which the Kd in series [4] (plateau 52%, rate 0.25) came out at 2 nM.

Take “ATATATATGGGAGGACGATGCGGCCCCGAGTTTCCCTAAGGTTTGGTTGACCTGTCATTTCAGCAGACGACGAGCGGGAAAAAAAA [IL-4 pool 012 clone 48]”: the Kd in series [1] (plateau 52%, rate 0.17) stood at 4.3 nM.

In the case of “ATATATATGGGAGGACGATGCGGGGGGCAAGAAGCACGGTACCCCAGGTCCGCCAGACGACGAGCGGGAAAAAAAA [PDGF pool 008 clone 33]”, the Kd in series [4] (plateau 100%, rate 0.24) is 5.7 nM. Consider “ATATATATGGGAGGACGATGCGGGACCAATAACACTACACTGATCATCTCCCTTCTATGTCCCCAGACGACGAGCGGGAAAAAAAA [beta-NGF pool 031 clone 7]”, for which the Kd in series [3] (plateau 55%, rate 0.42) worked out at 2.5 nM. Consider “ATATATATGGGAGGACGATGCGGGACCAAATACCAACTTCACATCACCTTTCTTATTCTCCGGCAGACGACGAGCGGGAAAAAAAA [beta-NGF pool 031 clone 44]”, for which, in series [3] (plateau 58%, rate 0.59), the Kd was found to be 2.2 nM.

Turning to “ATATATATGGGAGGACGATGCGGGCCAAGGACATTCTTGTTCGTTGTTGCTGTCCACTGTCTCCAGACGACGAGCGGGAAAAAAAA [IL-4 pool 012 clone 78]”, the Kd in series [1] (plateau 10%, rate 1.7) amounted to 9.7 nM. Take “ATATATATGGGAGGACGATGCGGCAAGGGAAACAGATAGCCCAGGCTCCCCCCCAGACGACGAGCGGGAAAAAAAA [PDGF pool 008 clone 37]”: the Kd in series [4] (plateau 74%, rate 0.21) amounted to 2.4 nM. Regarding “ATATATATGGGAGGACGATGCGGCGCCCCGATTGACCTTCGATTTATCCTACTTATGGCACCCCAGACGACGAGCGGGAAAAAAAA [P-selectin pool 014 clone 14]”, in series [6] (plateau 15%, rate 4), the Kd is 0.35 nM. For the sequence “ATATATATGGGAGGACGATGCGGGCCTACCAACTCCCCTCTAGTCCTGTTCTATCCACGTTGGCAGACGACGAGCGGGAAAAAAAA [IL-4 pool 012 clone 31]”, the Kd in series [1] (plateau 49%, rate 0.98) was found to be 21 nM. For the sequence “ATATATATGGGAGGACGATGCGGGCCCTACTTGCATGAATATCCACTCCTAGGCTTGAGGGAGCAGACGACGAGCGGGAAAAAAAA [Angiogenin pool 011 clone 85]”, the Kd in series [2] (plateau 31%, rate 3.5) turned out to be 0.2 nM.

As for “ATATATATGGGAGGACGATGCGGCCATACGCACTTCAGTGGGGATAATCCAACTGGTTTGGTGCAGACGACGAGCGGGAAAAAAAA [P-selectin pool 014 clone 95]”, in series [6] (plateau 39%, rate 1.54, same sequence as SEQ 39), the Kd stood at 45 nM. Consider “ATATATATGGGAGGACGATGCGGGCCAACCACGTGGTATTATTGACCTTGCAATGGGAATGCCCAGACGACGAGCGGGAAAAAAAA [Angiogenin pool 011 clone 11]”, for which the Kd in series [2] (plateau 23%, rate 1.46) was 1.1 nM. For “ATATATATGGGAGGACGATGCGGCCGGACATCCCCCAGGGCAAAACCAACTCCCAGACGACGAGCGGGAAAAAAAA [PDGF pool 008 clone 35]”, in series [4] (plateau 71%, rate 0.07), the Kd worked out at 5.1 nM. As for “ATATATATGGGAGGACGATGCGGGCACCTACCTGAGCTACATATGACAGTGTCACCCTGGCCCCAGACGACGAGCGGGAAAAAAAA [Angiogenin pool 011 clone 14]”, the Kd in series [2] (plateau 34%, rate 1.3) was found to be 0.2 nM. On to “ATATATATGGGAGGACGATGCGGCCATACGCACTTCAGTGGGGATAATCCAACTGGTTTGGTGCAGACGACGAGCGGGAAAAAAAA [beta-NGF pool 031 clone 43]”, for which the Kd in series [3] (plateau 38%) amounted to 7.9 nM. Consider “ATATATATGGGAGGACGATGCGGGCGGCAGACGCGCCGGGTACCCCAGGTCCCCAGACGACGAGCGGGAAAAAAAA [PDGF pool 008 clone 27]”, for which the Kd in series [4] (plateau 100%, rate 0.34) worked out at 3.2 nM. Regarding “ATATATATGGGAGGACGATGCGGGGCAAACTGCGTCGTATTATAAGCCTCGCTACAGATGCCACAGACGACGAGCGGGAAAAAAAA [Angiogenin pool 011 clone 12]”, the Kd in series [2] (plateau 31%, rate 0.68) turned out to be 0.1 nM. Turning to “ATATATATGGGAGGACGATGCGGCACAAGGAACAAAGCGGCCCCTATCCCCAACAGACGACGAGCGGGAAAAAAAA [PDGF pool 008 clone 31]”, the Kd in series [4] (plateau 100%, rate 0.19) amounted to 5.3 nM.
